Results published in publication PMC10138814.

Assays:
[1] = target: His6-SUMO-LaM8-LaM4 (llama); test: BLI; His-SUMO-tandem nanobody loaded on Ni-NTA biosensors; mCherry or DsRed in solution; 20 mM HEPES pH 7.4, 150 mM NaCl, 0.005% Tween-20; association 600 s, dissociation 600 s; 2:1 heterogeneous ligand fit; DsRed concentration calculated as a monomer
[2] = target: His6-SUMO-LaM1-LaM8 (llama); test: as above

Chain of DsRed (Q9U6Y8 whole entry): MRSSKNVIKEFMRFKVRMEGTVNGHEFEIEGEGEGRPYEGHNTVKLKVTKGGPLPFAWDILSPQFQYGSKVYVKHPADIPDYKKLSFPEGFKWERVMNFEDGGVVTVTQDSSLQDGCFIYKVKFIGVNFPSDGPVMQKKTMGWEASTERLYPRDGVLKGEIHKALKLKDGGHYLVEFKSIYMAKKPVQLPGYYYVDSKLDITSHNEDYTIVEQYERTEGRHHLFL

Substance	KD2 [1]	KD (site 1 of the 2:1 heterogeneous ligand fit) [1]	kdis1 [1]	kdis2 [1]	kon2 [1]	kon (site 1 of the 2:1 heterogeneous ligand fit) [1]	KD2 [2]	KD (site 1 of the 2:1 heterogeneous ligand fit) [2]	kdis1 [2]	kdis2 [2]	kon2 [2]	kon (site 1 of the 2:1 heterogeneous ligand fit) [2]
DsRed (from UniProt Q9U6Y8 1-225) (natural protein)	4.12 nM	2.64 nM	0.000232 s⁻¹	8.2e-05 s⁻¹	19900 M⁻¹ s⁻¹	88100 M⁻¹ s⁻¹						
mCherry	1.29 nM	1.38 nM	0.000239 s⁻¹	6.51e-05 s⁻¹	50600 M⁻¹ s⁻¹	173000 M⁻¹ s⁻¹	< 1 pM	1.87 nM	0.000552 s⁻¹	< 1e-07 s⁻¹	46700 M⁻¹ s⁻¹	296000 M⁻¹ s⁻¹
